Assay results reported in patent US20180016324A1 (Regeneron, published 2018).
Where two headings read alike, the source gives them in different places.

Experiments:
[1] = molecular target: T1, ZIKV envelope glycoprotein (E) of strain MR766 (Uganda 1947) (Zika virus, UniProt Q32ZE1 291-790); assay: cell-based or functional assay
[2] = molecular target: T2, ZIKV prM/E polyprotein on virus-like particles (VLPs) from HEK293T/17 cells (Zika virus, UniProt A0A024B7W1 123-795); assay: MSD ECL, VLPs on plate
T2 construct: also called ZIKV prM/E VLPs; Zika prM/E VLPs

[3] = molecular target: ZIKV envelope glycoprotein (E) of strain FLR (Colombia 2015) (Zika virus); assay: cell-based or functional assay
[4] = molecular target: T1, ZIKV envelope glycoprotein (E) of …; assay: cell-based or functional assay; remark: listed apart in the source
[5] = molecular target: ZIKV envelope glycoprotein (E) of strain PRVABC59 (Puerto Rico 2015) (Zika virus); assay: cell-based or functional assay
[6] = molecular target: T3, ZIKV (prM80E) with a C-terminal myc-myc-hexahistidine tag (Zika virus, UniProt A0A024B7W1 104-694); assay: SPR, mAb captured, 37C
T3 construct: also called ZIKV (prM80E)-mmH; ZIKV-mmH

[7] = molecular target: T3, ZIKV (prM80E) with a C-terminal …; assay: SPR, mAb captured, 37C, pH 5.0 chase
[8] = molecular target: T3, ZIKV (prM80E) with a C-terminal …; assay: SPR, mAb captured, 37C; remark: listed apart in the source
[9] = molecular target: T3, ZIKV (prM80E) with a C-terminal …; assay: SPR, mAb captured, 25C
[10] = molecular target: T3, ZIKV (prM80E) with a C-terminal …; assay: SPR, mAb captured, 37C, pH 6.0 chase
[11] = molecular target: T3, ZIKV (prM80E) with a C-terminal …; assay: SPR, mAb captured, 37C, pH 7.4
[12] = molecular target: T3, ZIKV (prM80E) with a C-terminal …; assay: SPR, mAb captured, 37C; remark: listed apart in the source
[13] = molecular target: T2, ZIKV prM/E polyprotein on virus-like …; assay: MSD ECL, VLPs on plate; high concentrations excluded from fit
[14] = molecular target: T3, ZIKV (prM80E) with a C-terminal …; assay: SPR, mAb captured, 37C, pH 5.5 chase
[15] = molecular target: ZIKV E protein with escape mutation S302F (Zika virus); assay: cell-based or functional assay

B1: H2aM25710N (antibody, V domains shown)
VH: EVQLLESGGGLVQPGGSLRLSCAASGFTVSNNYMSWVRQAPGKGLEWVSVIYSGGRTNYGDSVKGRFTISRDNSKNTLYLQMNSLRAEDTAVYYCARENYDFWSGDPYGWDVWGQGTTVTVSS
VL: DIQMTQSPSSLSASVGDRVTITCRASQDISNYLAWFQQKPGKAPKSLIYGASSLQRGVPSKFRGSGSGTDFTLTISSLQPEDFASYYCQQYNSYPYTFGQGTKLEIK
[1]
  neutralization IC50, Vero cells: 0.017 nM
[2]
  EC50: 0.244 nM

B2: H4H25640P (antibody, V domains shown)
VH: QVQLVESGGGVVQPGRSLRLSCAASGFTFSYYGMHWVRQAPGKGLEWVAVILYDGSNKFYSDSVKGRFTISRDNSRNTLYLQMNSLRLEDTAVYYCAKDYGGRFDYWGQGTLVTVSS
VL: EIVLTQSPGTLSLSSGERATLSCRASQSVSNKYLAWYQQKPGQVPRLLIYGASNRATGIPDRFSGSGSGTDFTLTINRLEPEDFAVFYCQQYGSTPSTFGQGTKVEIK
[3]
  neutralization IC50, Vero cells: 0.099 nM
[4]
  neutralization IC50, Vero cells: 0.0279 nM
[5]
  neutralization IC50, Vero cells: 0.166 nM
[6]
  Kd: 1.27 nM
  koff: 0.00186 s⁻¹
  kon: 1.47e+06 M⁻¹ s⁻¹
  t½: 6.2 min
[7]
  koff: 0.00337 s⁻¹
  t½: 3.4 min
[8]
  t½ pH 7.4/t½ pH 5.0: 2
  t½ pH 7.4/t½ pH 5.5: 2.3
[9]
  Kd: 0.597 nM
  koff: 0.000722 s⁻¹
  kon: 1.21e+06 M⁻¹ s⁻¹
  t½: 16 min
[10]
  koff: 0.00323 s⁻¹
  t½: 3.58 min
[11]
  koff: 0.00172 s⁻¹
  t½: 6.72 min
[12]
  t½ pH 7.4/t½ pH 6.0: 1.9
[13]
  EC50: 0.102 nM
[14]
  koff: 0.00402 s⁻¹
  t½: 2.87 min

B3: H4H25619P (antibody, V domains shown)
VH: QVQLVESGGGVVQPGRSLRLSCTASGFTFSTYGMHWVRHVPGKGLEWVAIVWYDGSDKSYAASVKGRFTISRDNSKNTLFLQMNSLRAEDTAVYYCARQGTYYYYGMDVWGQGTTVTVSS
VL: DIQMTQSPSSLSASVGDRVTITCRSSQTITNYLNWYQQRPGKAPKLLIYAASSLQSGVPSRFSGSGSGTDFTLTISSLQPEDFATYYCQQSYSTPPITFGQGTKLEIKR
[3]
  neutralization IC50, Vero cells: 1.26 nM
[4]
  neutralization IC50, Vero cells: 0.171 nM
[5]
  neutralization IC50, Vero cells: 1.14 nM
[6]
  Kd: 5.59 nM
  koff: 0.00108 s⁻¹
  kon: 193000 M⁻¹ s⁻¹
  t½: 10.7 min
[7]
  koff: 0.000548 s⁻¹
  t½: 21.1 min
[8]
  t½ pH 7.4/t½ pH 5.0: 0.3
  t½ pH 7.4/t½ pH 5.5: 0.5
[9]
  Kd: 3.14 nM
  koff: 0.000516 s⁻¹
  kon: 164000 M⁻¹ s⁻¹
  t½: 22.4 min
[10]
  koff: 0.00102 s⁻¹
  t½: 11.3 min
[2]
  EC50: 1.92 nM
[11]
  koff: 0.00193 s⁻¹
  t½: 6 min
[12]
  t½ pH 7.4/t½ pH 6.0: 0.5
[15]
  IC50 (read off the curve): ~1 nM
[14]
  koff: 0.000953 s⁻¹
  t½: 12.1 min

B4: H4H25622P (antibody, V domains shown)
VH: QVQLVESGGGVVQPGRSLRLSCAASGFTFSSYGMHWVRQAPGKGLEWLAIIWYDGTNKQYVDSVKGRFTISRDNSKNTLYLQLNSLRAEDTAVYYCARQDFYYYYGMDVWGQGTTVTVSS
VL: not shown
[3]
  neutralization IC50, Vero cells: 1.58 nM
[4]
  neutralization IC50, Vero cells: 0.188 nM
[5]
  neutralization IC50, Vero cells: 1.28 nM
[6]
  Kd: 9.07 nM
  koff: 0.00267 s⁻¹
  kon: 295000 M⁻¹ s⁻¹
  t½: 4.3 min
[7]
  koff: 0.000704 s⁻¹
  t½: 16.4 min
[8]
  t½ pH 7.4/t½ pH 5.0: 0.2
  t½ pH 7.4/t½ pH 5.5: 0.6
[9]
  Kd: 5.31 nM
  koff: 0.00133 s⁻¹
  kon: 251000 M⁻¹ s⁻¹
  t½: 8.7 min
[10]
  koff: 0.00234 s⁻¹
  t½: 4.93 min
[2]
  EC50: 2.44 nM
[11]
  koff: 0.00318 s⁻¹
  t½: 3.63 min
[12]
  t½ pH 7.4/t½ pH 6.0: 0.7
[14]
  koff: 0.00178 s⁻¹
  t½: 6.49 min

B5: H4H25704N (antibody, V domains shown)
VH: QVQLVESGGGVVQSGRSLRLSCAASGFTFIYYGMHWVRQAPGKGLEWVAVISYDGSDRYYADSVKGRFTISRDDSKNTLYLQMNSLRPEDTAVYYCAKDRGGRFDYWGQGTLVTVSS
VL: EIVLTQSPGTLSLSPGERATLSCRASQSVNNNYLAWYQQKPGQAPRLLIYGASSRATGIPDRFGGGGSGTDFTLTISRLEPEDFAVYYCQRYGNSPLTFGGGTKVEIK
[3]
  neutralization IC50, Vero cells: 0.0758 nM
[4]
  neutralization IC50, Vero cells: 0.046 nM
[5]
  neutralization IC50, Vero cells: 0.278 nM
[6]
  Kd: 0.621 nM
  koff: 0.0012 s⁻¹
  kon: 1.93e+06 M⁻¹ s⁻¹
  t½: 9.6 min
[7]
  koff: 0.000959 s⁻¹
  t½: 12 min
[8]
  t½ pH 7.4/t½ pH 5.0: 0.8
  t½ pH 7.4/t½ pH 5.5: 0.9
[9]
  Kd: 0.27 nM
  koff: 0.000359 s⁻¹
  kon: 1.33e+06 M⁻¹ s⁻¹
  t½: 32.2 min
[10]
  koff: 0.00131 s⁻¹
  t½: 8.85 min
[11]
  koff: 0.00121 s⁻¹
  t½: 9.56 min
[12]
  t½ pH 7.4/t½ pH 6.0: 1.1
[13]
  EC50: 0.18 nM
[14]
  koff: 0.00107 s⁻¹
  t½: 10.8 min

B6: H4H25598P (antibody, V domains shown)
VH: EVQLVESGGGLVQPGGSLRLSCAASGFTVSSNYMSWVRQAPGSGLEWVSVIYSGGITHYIGSVKGRFTISRHNSKNTLYLQMNSLRAEDTAMYYCARERYSGITGNPYGFDFWGQGTMVTVSS
VL: DIQLTQSPSFLSASVGDRVTITCWASQDISSYLAWYQQKPGIAPKLLIYSASTLQSGVPSSFSGSGSGTEFTLTISSLQPEDFATYYCQQLNIYPFTFGPGTKVDIK
[3]
  neutralization IC50, Vero cells: 0.553 nM
[4]
  neutralization IC50, Vero cells: 0.0545 nM
[5]
  neutralization IC50, Vero cells: 0.398 nM
[6]
  Kd: 0.7 nM
  koff: 0.000284 s⁻¹
  kon: 406000 M⁻¹ s⁻¹
  t½: 40.7 min
[7]
  koff: 0.114 s⁻¹
  t½: 0.1 min
[8]
  t½ pH 7.4/t½ pH 5.0: 288
  t½ pH 7.4/t½ pH 5.5: 187
[9]
  Kd: 0.156 nM
  koff: 4.49e-05 s⁻¹
  kon: 289000 M⁻¹ s⁻¹
  t½: 257 min
[10]
  koff: 0.0129 s⁻¹
  t½: 0.9 min
[2]
  EC50: 0.426 nM
[11]
  koff: 0.000397 s⁻¹
  t½: 29.1 min
[12]
  t½ pH 7.4/t½ pH 6.0: 32.4
[14]
  koff: 0.0741 s⁻¹
  t½: 0.16 min

B7: H4H25602P (antibody, V domains shown)
VH: EVQLVESGGGLVQPGGSLRLSCAASGFTVSSNYMSWVRQAPGSGLEWVSVIYSGGITHYVDSVKGRFTISRHNSKNTLYLQMNSLRAEDTAMYYCARERYSGITGNPYGFDIWGQGTMVTVSS
VL: DIQLTQSPSFLSASVGDRVTITCWASQDISSYLAWYQQKPGIAPKLLIYAASTLQSGVPSRFSGSGSGTEFTLTISSLQPEDFATYYCQQLNIYPFTFGPGTKVDIK
[3]
  neutralization IC50, Vero cells: 0.63 nM
[4]
  neutralization IC50, Vero cells: 0.0531 nM
[5]
  neutralization IC50, Vero cells: 0.501 nM
[6]
  Kd: 0.745 nM
  koff: 0.000284 s⁻¹
  kon: 381000 M⁻¹ s⁻¹
  t½: 40.6 min
[7]
  koff: 0.097 s⁻¹
  t½: 0.1 min
[8]
  t½ pH 7.4/t½ pH 5.0: 272
  t½ pH 7.4/t½ pH 5.5: 134
[9]
  Kd: 0.07 nM
  koff: 1.95e-05 s⁻¹
  kon: 286000 M⁻¹ s⁻¹
  t½: 592 min
[10]
  koff: 0.0122 s⁻¹
  t½: 0.95 min
[2]
  EC50: 1.56 nM
[11]
  koff: 0.000356 s⁻¹
  t½: 32.5 min
[12]
  t½ pH 7.4/t½ pH 6.0: 34.1
[14]
  koff: 0.0476 s⁻¹
  t½: 0.24 min

B8: H4H25617P (antibody, V domains shown)
VH: EVQLVESGGGLVQPGGSLRLSCSASGFTFTTYAMSWVRQAPGRGLEWVSSISGTGVSTYYADSVKGRFTISRDNSKNALYLQMNSLTAEDTAVYYCAKDSGTYHWGQGTLVTVSS
VL: EIVLTQSPATLSLSPGERATLSCRASQSVDSYLAWYQQKPGQAPRLLIYDASNRATGIPARFSGSGSGTDFTLTISSLESEDFAVYYCQQRRNWPQFTFGGGTKVEIK
[3]
  neutralization IC50, Vero cells: 0.552 nM
[4]
  neutralization IC50, Vero cells: 0.166 nM
[5]
  neutralization IC50, Vero cells: 0.543 nM
[6]
  Kd: 16.1 nM
  koff: 0.00729 s⁻¹
  kon: 452000 M⁻¹ s⁻¹
  t½: 1.6 min
[7]
  koff: 0.00464 s⁻¹
  t½: 2.5 min
[8]
  t½ pH 7.4/t½ pH 5.0: 0.8
  t½ pH 7.4/t½ pH 5.5: 0.8
[9]
  Kd: 7.9 nM
  koff: 0.00197 s⁻¹
  kon: 250000 M⁻¹ s⁻¹
  t½: 5.9 min
[10]
  koff: 0.00494 s⁻¹
  t½: 2.34 min
[2]
  EC50: 0.755 nM
[11]
  koff: 0.00602 s⁻¹
  t½: 1.92 min
[12]
  t½ pH 7.4/t½ pH 6.0: 0.8
[14]
  koff: 0.00465 s⁻¹
  t½: 2.48 min
